In US20070066809A1:
Where no end group is shown, it is not given here. [ ]: non-standard residue; d: D form. pGlu = O=C1CC[C@@H](C(=O)O)N1

How the values were obtained:
MAb 458-3 = assay: MAb inhibition ELISA; soluble inhibitor of MAb binding to the coated C-terminal target peptide-BSA
MAb 445-2 = assay: MAb inhibition ELISA; soluble inhibitor of MAb binding to coated hG34(16-34)-Gly 35-BSA
MAb 445-1 = assay: as above
MAb 400-4 = assay: MAb inhibition ELISA; soluble inhibitor of MAb binding to coated hG17(1-9)-“Ala”-BSA
MAb 400-3 = assay: as above
MAb 400-2 = assay: as above
MAb 400-1 = assay: as above
MAb 458-1 = assay: MAb inhibition ELISA; soluble inhibitor of MAb binding to the coated C-terminal target peptide-BSA
MAb 458-5 = assay: as above
MAb 458-4 = assay: as above
MAb 458-2 = assay: as above
MAb 401-2 = assay: MAb inhibition ELISA; soluble inhibitor of MAb 401-2 binding to the coated G34 N-terminal target antigen

Row | Binder | % Inhibition at 10 nmol/ml (250 pmoles/well) (MAb 458-3) | IC50 (MAb 445-2) | IC50 (MAb 445-1) | IC50 (MAb 400-4) | IC50 (MAb 400-3) | IC50 (MAb 400-2) | IC50 (MAb 400-1) | % Inhibition at 10 nmol/ml (250 pmoles/well) (MAb 458-1) | % Inhibition at 10 nmol/ml (250 pmoles/well) (MAb 458-5) | % Inhibition at 10 nmol/ml (250 pmoles/well) (MAb 458-4) | % Inhibition at 10 nmol/ml (250 pmoles/well) (MAb 458-2) | IC50 (MAb 401-2)
1 | [pGlu]GPWLEEEE (ends and bridges not checked) [hG17(1-9) N terminus peptide] | 1.2% | – | – | – | – | – | – | – | – | – | – | –
2 | CPPPPSSYGWMDFG [hG17 (12-17)-Gly18 peptide (immunogen peptide …)] | – | 13 µM | 4000 nM | – | – | – | – | – | – | – | – | –
3 | EGPWLEKEEAAYGWMDF (ends and bridges not checked) [equine G17] | – | – | – | 1690 nM | 120 nM | 86 nM | 1650 nM | – | – | – | – | –
4 | DYMGWMDF-NH2 [CCK (26-33) unsulfated] | 84.8% | – | – | – | – | – | – | 93.8% | 92% | 83.4% | 84.8% | –

Next, values leading:

Row | % Inhibition at 10 nmol/ml (250 pmoles/well) (MAb 458-3) | IC50 (MAb 445-2) | IC50 (MAb 445-1) | IC50 (MAb 400-4) | IC50 (MAb 400-3) | IC50 (MAb 400-2) | IC50 (MAb 400-1) | % Inhibition at 10 nmol/ml (250 pmoles/well) (MAb 458-1) | % Inhibition at 10 nmol/ml (250 pmoles/well) (MAb 458-5) | % Inhibition at 10 nmol/ml (250 pmoles/well) (MAb 458-4) | % Inhibition at 10 nmol/ml (250 pmoles/well) (MAb 458-2) | IC50 (MAb 401-2) | Binder
5 | – | 5 µM | 700 nM | 699 nM | 1390 nM | 77 nM | 1790 nM | 2.1% | – | – | – | – | [pGlu]GPWLEEEEEAYGWMDFG [human glycine-extended gastrin-17 (G17-Gly)]
6 | 92.4% | – | – | 620 nM | 1080 nM | 85 nM | 2030 nM | 94.3% | 91.9% | 88.4% | 86% | – | EGPWLEEEEEAYGWMDF (N-terminal pyroglutamic acid (pGlu); C-terminal Phe-NH2 (amide)) [human gastrin-17 (G17), mature amidated form]
7 | 90.7% | – | – | – | – | – | – | 93.5% | 91.5% | 86.7% | 84.5% | 700 nM | [pGlu]LGPQGPPHLVADPSKKEGPWLEEEEEAYGWMDF-NH2 (SMILES CSCC[C@H](NC(=O)[C@H](Cc1c[nH]c2ccccc12)NC(=O)CNC(=O)[C@H](Cc1ccc(O)cc1)NC(=O)[C@H](C)NC(=O)[C@H](CCC(=O)O)NC(=O)[C@H](CCC(=O)O)NC(=O)[C@H](CCC(=O)O)NC(=O)[C@H](CCC(=O)O)NC(=O)[C@H](CCC(=O)O)NC(=O)[C@H](CC(C)C)NC(=O)[C@H](Cc1c[nH]c2ccccc12)NC(=O)[C@@H]1CCCN1C(=O)CNC(=O)[C@H](CCC(=O)O)NC(=O)[C@H](CCCCN)NC(=O)[C@H](CCCCN)NC(=O)[C@H](CO)NC(=O)[C@@H]1CCCN1C(=O)[C@H](CC(=O)O)NC(=O)[C@H](C)NC(=O)[C@@H](NC(=O)[C@H](CC(C)C)NC(=O)[C@H](Cc1c[nH]cn1)NC(=O)[C@@H]1CCCN1C(=O)[C@@H]1CCCN1C(=O)CNC(=O)[C@H](CCC(N)=O)NC(=O)[C@@H]1CCCN1C(=O)CNC(=O)[C@H](CC(C)C)NC(=O)[C@@H]1CCC(=O)N1)C(C)C)C(=O)N[C@@H](CC(=O)O)C(=O)N[C@@H](Cc1ccccc1)C(N)=O) [human gastrin-34 (G34), amidated]
